From the supplement of paper PMC12042874
± gives the uncertainty stated by the source.

Assay: amyloid nucleation score (Sup35N fusion, yeast selection) (log enrichment); library NNK3; higher = more nucleation; inactive = no reads after selection
How it was run: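 Peptides of 20 random codons, each fused to Sup35N, were expressed in psi-negative yeast. Cells were induced with 100 μM copper sulfate for 24 hours and grown 7 days at 30°C on medium lacking adenine and uracil, and plasmid inserts before and after selection were Illumina-sequenced. Nucleation scores are DiMSum log enrichments of output over input reads, centred on the mode score of non-aggregating sequences, and sequences under 100 input reads were excluded.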

| Substance | amyloid nucleation score |
| --- | --- |
| HPMLFSFYVKGRVFLSRV | inactive |
| LSRINSCRLMVQVQLSRT | inactive |
| YTVRMWKDDVRARRGSQGVW | inactive |
| LNRVINYLIKLYFAGWVSHD | inactive |
| TARPSNKMNHRECCTNKFFP | inactive |
| GGFVLC | inactive |
| CYNWHMFTEYCCSSSQARSM | 0.195 ± 0.57 |
| CFSDGPLRVHSIGQRWLRCR | inactive |
| YNLSNTVLAISVGERNT | inactive |
| NNNFRKDSS | inactive |
| VFVKLQHVGMSLGSFFPGSM | 0.85 ± 0.19 |
| IDLKY | inactive |
| LWRWKYRAILKRYEKERVGR | inactive |
| WSCESNDVHSCWWWLGGFNT | inactive |
| TTFNRFVYPYGERYLG | inactive |
| HLWTFEITSTGYL | inactive |
| GLSVVYSNRYNTWVRDLKDW | 0.376 ± 0.22 |
| CFTNNSIHVYSLWIKTRHFF | 0.239 ± 0.58 |
| VIGQGLCWGFSTVDIP | inactive |
| VQWCQDAFVIV | inactive |
| YSYANSMNMGMMFMGRLGW | inactive |
| FNRKCVSVCRVRGGICWRSQ | inactive |
| SMIGQSVEFYLISCYRGLCT | inactive |

| Substance | amyloid nucleation score |
| --- | --- |
| GMQALIVFSSVVMRYAFVEG | -1.18 ± 1.7 |
| RLRYIGSILLLRRKVVFLMH | inactive |
| KYKVDIMLRIARSTVFSDSF | inactive |
| FNVRWGWLGDLIYGGFLHVG | inactive |
| DVEFGLSKLCYHRVCYVTEM | -0.113 ± 0.66 |
| NTEGCSSQICRN | inactive |
| RFTRMWTDWCAGLSGSLRCS | inactive |
| RADPTRITSPSLLTIMKTHE | inactive |
| MKPSKGVDL | inactive |
| YVTDMRCGVL | inactive |
| TIAVLMLIDCGSRGPFRHLT | inactive |
| SRDFVKYISEERS | inactive |
| SKCVYAVWCACVFARF | inactive |
| HFARDPLSERSKFPLIF | 0.623 ± 0.15 |
| SERYADL | inactive |
| VWVRLTFKTSY | 0.678 ± 0.16 |
| LGPREQDLINFNWVFQYLKH | inactive |
| ILWDKRRSYYCIMGAIYIVR | inactive |
| NNDYADLRWGKSVGKASGWG | inactive |
| DMRVFANMWLVEIPVPS | inactive |
| ESWKWYQYSVQWAWYEHPHS | inactive |
| KNVSEEVGLSLVPSEGKSHL | inactive |
| TVLLIGNMWTYWAYMQCSWG | inactive |

| Substance | amyloid nucleation score |
| --- | --- |
| EIFGSISG | inactive |
| LSFWVSYLGIVFLQNICEEW | inactive |
| YYFHRFL | inactive |
| KVIRNTFIACCSV | 2.16 ± 0.07 |
| VFWLRYMNVSRANARGNAS | inactive |
| KVTLRNRFISMPNFMIEP | inactive |
| CCSMARAITISGNVELKFD | inactive |
| HAFRVSLSLVVVCCVIWDTN | inactive |
| SAKFTLLGISL | inactive |
| MRARLANKQGMGPRTRVASV | inactive |
| NFSFGGLIISGCIMRNWGLQ | 2.92 ± 0.077 |
| MCNWMNNLADSGLSASSVQV | inactive |
| HSIIRVSFLDMVCAGNSIVR | -0.504 ± 1.9 |
| WLNKWTHGVIANFYVVSGHP | 1.64 ± 0.075 |
| TGSVVRDMVMAFTD | -0.458 ± 0.93 |
| DVMTKDQ | inactive |
| ERMRLNARFSTHLE | inactive |
| SVRGITQLSSTLHVRLVITS | inactive |
| LSTMN | inactive |
| RLVVLMCCIGYFGPADMNFA | 2.66 ± 0.08 |
| SGDKSYRSRYHWMGIQRVNR | inactive |
| RSKNWAVIMIGR | inactive |
| EMYGWINMIQWNLLCVSEII | inactive |

| Substance | amyloid nucleation score |
| --- | --- |
| VPGRVMVLRIWIYRNVQKRG | inactive |
| YLFSSMLVILTCFRT | inactive |
| ASLRYYGMAVVSSVYKMVVV | inactive |
| SVSTGVKIACTPTIVDRQLG | inactive |
| RDEASLSYMSPCRYDYCNCF | 0.003 ± 1 |
| TLDAILNLHTS | inactive |
| MIFLRIFYGLLGNSQFIIFL | 0.331 ± 0.56 |
| STSVVELVNLVDDLRLNLSR | inactive |
| AVQQKSECFLFAFLILRDWV | inactive |
| FFLTLGYVVGYQRWSYILWR | inactive |
| VKKSYWAERGFFGA | inactive |
| LHITVEIWTLWK | inactive |
| PLDQCPKVPSLVASLQSESR | inactive |
| PAMDII | inactive |
| RYIYPVDLYIWYNYGILLNR | 0.777 ± 0.23 |
| DTYGVVCEVYAILWMNRPLR | inactive |
| RCGEDNLQGSLSTSTVGNLV | inactive |
| WLESHGDHGFNEKDSWWPYF | inactive |
| HGWYSVFADSRRYCKRVRYT | inactive |
| YIAVG | -0.483 ± 0.75 |
| VKGQWR | inactive |
| CLNNRSFNPKMQYPLVTMDH | inactive |
| VSDRCFKSTWSLMFYMGVVV | inactive |

| Substance | amyloid nucleation score |
| --- | --- |
| VALAVMQKLNMRYIYNPCFV | inactive |
| HGFERSRSGNRSGLIDDLGC | inactive |
| FFKVSPMYY | inactive |
| NNFRVNVHIIALVPECYFRL | 2.44 ± 0.077 |
| IRYSGFPYPSNLWHTSATLY | inactive |
| YPRDWGYALRLYYVEKKLR | inactive |
| FLGSLVSLRCKWFVAF | 0.292 ± 0.75 |
| TEVSQWGVREVFSLSTSRRL | 0.372 ± 0.28 |
| TAMCQSLGPTATTLTGVSWG | inactive |
| NGYTNASS | inactive |
| FLNFSGLPGFVCPVIPSHYV | inactive |
| FRLMVGCCYGGPGREVWAGG | inactive |
| HNSRN | 0.186 ± 0.21 |
| ADVLTNRIGPCIKEGIKLGI | inactive |
| VECSIVLCII | 2.26 ± 0.051 |
| DTISGGEWDNEVRPYRILLL | inactive |
| TYCSYTL | inactive |
| LKNFKSSAHLMQMIVLNFAY | inactive |
| EMVITWCLRMLSQAMLGGYS | inactive |
| CTQGMVYIS | inactive |
| LVMPYDMCCTRFQRAFSVCC | inactive |
| RCHYSSWWESPCQSVM | inactive |
| NYRERS | inactive |

| Substance | amyloid nucleation score |
| --- | --- |
| YHTAWWAEMCIDIKNGEL | inactive |
| VIQGLYSSFMHVYG | inactive |
| FDGTVVSR | inactive |
| IIRISEFDSCGQTAW | inactive |
| HHLGRSLGIVTSLQLGIILL | inactive |
| FFFFTLKTSVQADLHDMLSQ | 0.792 ± 0.16 |
| MGGELCY | inactive |
| GTRIGEIRLASFGSVRGFNV | inactive |
| LNFSHGSCGSFCGSIMIST | inactive |
| SRFYSDTQPTCGWKRVESRG | -0.897 ± 2.5 |
| VHVRWVVRMVSWKYLAGILL | inactive |
| CDLWIHWS | inactive |
| LILFPRKRHTGSM | inactive |
| APRFRFQTVHRSFVRSRKLR | inactive |
| WFGEYPQFWRARSYFRTSDW | inactive |
| RLGFRCSVLSDMLYVGVLGS | inactive |
| ISQFLGKFTFCNSALHFFGA | inactive |
| LASVLEYESWLSLFIWQSKH | 0.195 ± 0.34 |
| FDRKYW | inactive |
| CFLSQLNTSDACVCLRFGWG | inactive |
| KLVAGFPAGCTK | inactive |
| IIEDLLLHWLGVWVFSKKFA | inactive |
| FSISKLGCCYVTAMVVSASR | inactive |

| Substance | amyloid nucleation score |
| --- | --- |
| LRWSGFIGDAYGYLFKEWGQ | 0.145 ± 0.33 |
| WSLMCRVAYRYGRVRNSKSG | inactive |
| RLFSRDLTSFCFLFFNFRWK | inactive |
| RFPDLLQMVRAKAPDPLQQH | inactive |
| CYWIASRLFTKLSNYLSISG | inactive |
| CSGTSSFRDLTCGCRHCFVG | 1.3 ± 0.099 |
| RVKSVTVMMIFDNYSCMVCN | 1.93 ± 0.069 |
| SGLKQSPQLVLCAVRPRRSN | inactive |
| LWPWFNCLRGRCGRIVCGWR | inactive |
| SLLSEMSTR | inactive |
| SMQGDRWFLVL | inactive |
| WCTSFGELEVYRVALILRTA | inactive |
| RSICV | inactive |
| GAFPRGSS | inactive |
| FCFDEEDVLRTGCNGDSYPG | inactive |
| NGDYDIIRSTCYTSKVYQSV | inactive |
| GRSSCLSTFC | inactive |
| CQLGSSLGDDTEGSVAIPAV | inactive |
| ISMLMFDLA | inactive |
| LSVITVLNKKNRSDIMWIMI | inactive |
